Laboratory results as given in patent publication US6613878 (CYCLACEL, dated 2003).
Ends that are not written are not given here. * marks the point of attachment. Biotin = O=C1N[C@H]2[C@H](CS[C@H]2CCCCC(=O)*)N1

Columns and labels:
[1] = biological target: T1, human PCNA (proliferating cell nuclear antigen) (human, UniProt P12004 1-261); assay: precipitation assay
T1 construct: also called recombinant human PCNA
Protocol: (§1) Twenty amino acid peptides with 15 amino acid overlaps were synthesized (Chiron Mimotopes, Australia) across the 89 amino acids from the C-terminal region of Fen1 identified in the two hybrid screen as the PCNA binding site on Fen1. These peptides were linked via residues SGSG (SEQ ID NO:3) at the amino acid terminus to biotin. 2.7 µg of each peptide was incubated with 10 µl streptavidin agarose beads (Sigma) in phosphate buffered saline (PBS) for 1 hour at room temperature (r.t.) then beads were washed extensively in PBS and recovered each time by centrifugation at 11,600 g. HeLa cell lysate was added to the washed beads to a final protein concentration of 1 mg/ml and incubated with the beads on ice for 1 hour. Beads were extensively washed in PBS with 220 mM NaCl, then bound proteins removed by boiling for 8 minutes in SDS loading buffer with 0.2 M DTT. Proteins were separated on 10% SDS-PAGE then electrophoretically transferred to nitrocellulose. Blots were blocked then incubated for 1 hour r.t. with PC 10 hybridoma supernatant (Waseem & Lane, 1990) diluted 1:5 in DMEM with 10% FCS. After washing, secondary HRP-conjugated anti-mouse IgG serum at 1:1000 in 2% non-fat milk-PBS-0.2% Tween was added for 1 hour at r.t. Bound antibody was visualised using the ECL system according to the manufacturer's instructions (Amersham plc.)
To map precisely the residues of Fen1 to which PCNA binds, a series of biotinylated 20 amino acids peptides (with 15 amino acid overlaps) were synthesized representing the region of Fen1 found to interact with PCNA in the two hybrid screen (FIG. 1). Fen1 peptides (bound to streptavidin agarose beads) were incubated with human HeLa cell extracts, then beads were precipitated and bound protein analysed on immunoblots probed with monoclonal anti-PCNA antibody PC10 (Waseen & Lane, 1990).

[2] = biological target: T2, human Fen1 fused to the transcriptional activation domain of Gal4 (Gal4ACT) (human, UniProt P39748 1-380); assay: yeast two hybrid
T2 construct: range 1-380; Yeast two hybrid prey; also called DNase IV; rad2hs
Excerpt: The 89 Amino Acids From the C-terminal Region of Fen1 Bind PCNA in an Interaction Trap Proteins that interact physically with human PCNA were screened using a two hybrid interaction trap system that detects protein-protein interactions by reconstitution of a functional Gal4 transcriptional activator in the yeast *Saccharomyces cerevisiae*. A plasmid expressing human PCNA in fusion with the DNA binding domain of Gal4 (Gal4AS) was used to screen plasmids expressing fusion constructs of molecules encoded by fragments from a human cDNA library with the transcriptional activation domain of Gal4 (Gal4ACT). […] The minimal Fen1 fragment isolated in our screen (FIG. 1) encoded the 89 amino acids from the C-terminal region of the protein (full length 380 aa, (Murray et al., 1994)), therefore localising the PCNA binding site to these residues.

[3] = biological target: T1, human PCNA (proliferating cell nuclear …); assay: peptide on streptavidin agarose beads, precipitation from HeLa extract, PC10 immunoblot
Protocol: as §1, with “These” for “Twenty amino acid peptides with 15 amino acid overlaps were synthesized (Chiron Mimotopes, Australia) across the 89 amino acids from the C-terminal region of Fen1 identified in the two hybrid screen as the PCNA binding site on Fen1. These”
The region of human Fen1 recognised by PCNA in the precipitation assay contains a motif highly conserved in the Fen1 family. We examined whether human PCNA could bind to his motif in the yeast homologues of Fen1, *S. pombe* rad2 and *S. pombe* RAD27/YKL510. […]

T1 sequence (P12004 whole entry): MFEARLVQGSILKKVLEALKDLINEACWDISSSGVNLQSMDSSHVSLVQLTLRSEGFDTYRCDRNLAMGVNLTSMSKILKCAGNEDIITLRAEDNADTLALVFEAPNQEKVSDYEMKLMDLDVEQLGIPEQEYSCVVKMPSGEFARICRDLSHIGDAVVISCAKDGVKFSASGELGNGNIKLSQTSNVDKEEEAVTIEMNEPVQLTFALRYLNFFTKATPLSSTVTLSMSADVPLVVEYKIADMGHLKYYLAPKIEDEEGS
T2 sequence (P39748 whole entry, the tested form may be a part): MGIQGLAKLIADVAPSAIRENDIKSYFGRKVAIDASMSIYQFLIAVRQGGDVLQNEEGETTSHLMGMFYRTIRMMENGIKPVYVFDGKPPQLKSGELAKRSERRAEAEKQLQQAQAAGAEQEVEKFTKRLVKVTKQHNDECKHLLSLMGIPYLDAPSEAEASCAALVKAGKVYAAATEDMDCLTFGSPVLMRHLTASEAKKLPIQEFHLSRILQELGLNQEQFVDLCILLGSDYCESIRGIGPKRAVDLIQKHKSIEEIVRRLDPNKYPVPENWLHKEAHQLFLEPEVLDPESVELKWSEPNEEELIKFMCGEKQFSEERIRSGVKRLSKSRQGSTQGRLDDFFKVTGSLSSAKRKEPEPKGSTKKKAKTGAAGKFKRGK

Row | Binder | binding result [1] | also measured
1 | PCNA from Schizosaccharomyces pombe (other, UniProt Q03392 1-260, looked up, Two hybrid construct; the Gal4 fusion is not described for this protein; also called S. pombe PCNA; pcn1 product) MLEARFQQAALLKKLLDAIKELVTDANFDCNDNGISLQAMDSSHVALVSMLIKSDGFEPYRCDRNIALGINLNALSKVLRCAQNEDLVTLKAEDTPEVLNLVFESEKNDRISDYDVKLMDIDQEHLGIPDIEYDATITMPAAEFQRITRDLLTLSDSVTINASKEGVRFSCKGDIGNGSTTLKQHTDLSDQDQSIEISLTQAVTLTFSLKYLAQFTKATPLATRVTLSMSNDVPLLVEYKMESGFLRFYLAPKIGEEDEE | – | binding result [2]: binds
2 | Biotin-SGSGKRLSKSRQGSTQGRLDDFFK (also called FenPBP) [Fen1 peptide 84 (Fen1PBP, Fen1-PCNA binding peptide)] | binds | –
3 | PCNA from Drosophila melanogaster (other, UniProt P17917 1-260, looked up, Two hybrid construct; the Gal4 fusion is not described for this protein; also called D. melanogaster PCNA) MFEARLGQATILKKILDAIKDLLNEATFDCSDSGIQLQAMDNSHVSLVSLTLRSDGFDKFRCDRNLSMGMNLGSMAKILKCANNEDNVTMKAQDNADTVTIMFESANQEKVSDYEMKLMNLDQEHLGIPETDFSCVVRMPAMEFARICRDLAQFSESVVICCTKEGVKFSASGDVGTANIKLAQTGSVDKEEEAVIIEMQEPVTLTFACRYLNAFTKATPLSTQVQLSMCADVPLVVEYAIKDLGHIRYYLAPKIEDNET | – | binding result [2]: binds
4 | ASKTIPQGRLDSFFKPVPSS (not fully specified (N-terminus); also: biotinylated, position not given here, also called rad2 peptide) [peptide 92, 20 amino acid peptide of the conserved box of S. pombe rad2] | binds | –
5 | GLKSGIQGRLDGFFQVVPKT (not fully specified (N-terminus); also: biotinylated, position not given here, also called RAD27 peptide) [peptide 93, 20 amino acid peptide of the conserved box of S. cerevisiae RAD27/YKL510] | – | binding result [3]: binds

More lines, main results first:

Row | binding result [1] | Binder | also measured
6 | binds | Biotin-SGSGSRQGSTQGRLDDFFKVTGSL [Fen1 peptide 85] | –
7 | binds | Biotin-SGSGTQGRLDDFFKVTGSLSSAKR [Fen1 peptide 86] | –
